Laboratory results reported in article doi:10.1101/2023.10.13.562161.

Molecular target: VanX^C78/157S
Assay: SEC

VanX^C78/157S (enzyme) was tested, and the stoichiometry N was 2.
